Usually Kd stands for the free concentration of one partner at which half of the binding sites on the other are occupied at equilibrium, for simple one-to-one binding. A higher Kd goes with lower affinity.

This test concerns the target F-actin prepared by polymerizing β-actin (UniProt P60709 1-375). In words: co-sedimentation.

B1: ZO-1 ABR construct for co-sedimentation (EGFP-ZO-1(1159–1382)-Dual Strep) (domain or fragment, human, UniProt Q07157 1159-1382, looked up)
chain: EQPAPGYDTHGRLRPEAQPHPSAGPKPAESKQYFEQYSRSYEQVPPQGFTSRAGHFEPLHGAAAVPPLIPSSQHKPEALPSNTKPLPPPPTQTEEEEDPAMKPQSVLTRVKMFENKRSASLETKKDVNDTGSFKPPEVASKPSGAPIIGPKPTSQNQFSEHDKTLYRIPEPQKPQLKPPEDIVRSNHYDPEEDEEYYRKQLSYFDRRSFENKPPAHIAASHLSE
For B1, the Kd is around 10 µM.

For the origin of these results see PMC7530003 (Developmental cell, 2020).
